Drawing on publication PMC3565030, this text covers Kd for one molecule.

The assay addresses T1, Eco1 phosphopeptide “94-98-99” (phosphates at Thr94, Ser98 and Ser99), FITC-conjugated (budding yeast).
T1 chain: GTITPLNSSPLKK
Briefly: fluorescence polarisation.

B1: Cdc4–Skp1 complex (His6-Cdc4-LP6DelA GST-Skp1), P07834 1-779; P52286 1-194 (complex)
chain 1: GTLIKDNLKRDLITSLPFEISLKIFNYLQFEDIINSLGVSQNWNKIIRKSTSLWKKLLISENFVSPKGFNSLNLKLSQKYPKLSQQDRLRLSFLENIFILKNWYNPKFVPQRTTLRGHMTSVITCLQFEDNYVITGADDKMIRVYDSINKKFLLQLSGHDGGVWALKYAHGGILVSGSTDRTVRVWDIKKGCCTHVFEGHNSTVRCLDIVEYKNIKYIVTGSRDNTLHVWKLPKESSVPDHGEEHDYPLVFHTPEENPYFVGVLRGHMASVRTVSGHGNIVVSGSYDNTLIVWDVAQMKCLYILSGHTDRIYSTIYDHERKRCISASMDTTIRIWDLENGELMYTLQGHTALVGLLRLSDKFLVSAAADGSIRGWDANDYSRKFSYHHTNLSAITTFYVSDNILVSGSENQFNIYNLRSGKLVHANILKDADQIWSVNFKGKTLVAAVEKDGQSFLEILDFS
chain 2: MVTSNVVLVSGEGERFTVDKKIAERSLLLKNYLNDMGDDDDEDDDEIVMPVPNVRSSVLQKVIEWAEHHRDSNFPDEDDDDSRKSAPVDSWDREFLKVDQEMLYEIILAANYLNIKPLLDAGCKVVAEMIRGRSPEEIRRTFNIVNDFTPEEEAAIRRENEWAEDR
modifications: not checked
As to B1, the equilibrium dissociation constant (Kd) (usually the equilibrium constant for the complex coming apart) stood at 10.3 µM.
